Experiments:
Assay in all cases: flow cytometry on transiently transfected cells
[1] = biological target: T1, TNFR2 on transiently transfected cells (UniProt P20333 23-461, limits assumed)
T1 construct: whole, on cells
T1 sequence (looked up): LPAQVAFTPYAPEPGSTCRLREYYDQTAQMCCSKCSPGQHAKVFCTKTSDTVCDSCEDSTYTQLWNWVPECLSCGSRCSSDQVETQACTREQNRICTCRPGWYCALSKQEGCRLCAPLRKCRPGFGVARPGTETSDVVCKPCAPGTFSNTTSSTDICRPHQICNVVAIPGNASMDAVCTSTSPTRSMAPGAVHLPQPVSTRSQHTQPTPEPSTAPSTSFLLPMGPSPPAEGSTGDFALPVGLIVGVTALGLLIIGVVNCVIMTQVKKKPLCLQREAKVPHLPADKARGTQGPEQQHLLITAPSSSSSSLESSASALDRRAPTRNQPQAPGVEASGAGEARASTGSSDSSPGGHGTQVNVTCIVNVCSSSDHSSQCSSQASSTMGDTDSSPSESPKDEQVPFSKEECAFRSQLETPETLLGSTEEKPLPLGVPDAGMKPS
Experimental: (§1) One million cells, in 0.1 ml of FACS buffer (PBS, 0.1% BSA, 0.1% NaN₃), were incubated with 0.1-1 microgram of protein or antibody at RT for 15 min. The cells were washed with 3 ml of FACS buffer, reacted with biotinylated primary antibody, and stained with PE-conjugated secondary antibody at RT for 15 min. Cells were then washed again, resuspended in 0.5 microgram/ml of propidium iodide, and live cells were gated and analyzed on a FACScan using the CellQuest software (BD Biosciences).

[2] = biological target: T2, LTβR on transiently transfected cells (UniProt P36941 31-435, limits assumed)
T2 construct: whole, on cells
T2 sequence (P36941 31-435 limits assumed): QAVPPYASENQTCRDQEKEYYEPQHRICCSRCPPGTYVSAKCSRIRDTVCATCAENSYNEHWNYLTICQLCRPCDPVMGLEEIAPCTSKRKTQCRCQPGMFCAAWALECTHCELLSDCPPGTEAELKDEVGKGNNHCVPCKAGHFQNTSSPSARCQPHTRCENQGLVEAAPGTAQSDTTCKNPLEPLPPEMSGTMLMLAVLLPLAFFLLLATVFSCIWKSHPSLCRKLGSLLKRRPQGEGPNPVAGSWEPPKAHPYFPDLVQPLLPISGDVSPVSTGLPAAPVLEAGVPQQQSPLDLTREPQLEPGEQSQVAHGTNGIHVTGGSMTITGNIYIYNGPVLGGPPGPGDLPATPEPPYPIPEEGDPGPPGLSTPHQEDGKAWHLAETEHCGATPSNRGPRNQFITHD
Experimental: as §1

[3] = biological target: T3, 4-1BB on transiently transfected cells (UniProt Q07011 24-255, limits assumed)
T3 construct: whole, on cells
T3 sequence (Q07011 24-255 limits assumed): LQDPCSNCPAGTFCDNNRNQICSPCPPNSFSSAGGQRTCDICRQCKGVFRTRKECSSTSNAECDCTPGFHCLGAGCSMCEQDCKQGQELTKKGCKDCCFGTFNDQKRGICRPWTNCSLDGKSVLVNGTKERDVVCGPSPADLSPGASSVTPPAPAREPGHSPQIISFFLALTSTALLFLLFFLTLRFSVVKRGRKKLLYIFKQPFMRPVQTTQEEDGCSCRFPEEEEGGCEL
Experimental: as §1

[4] = biological target: T4, CD30 on transiently transfected cells (UniProt P28908 19-595, limits assumed)
T4 construct: whole, on cells
T4 sequence (looked up): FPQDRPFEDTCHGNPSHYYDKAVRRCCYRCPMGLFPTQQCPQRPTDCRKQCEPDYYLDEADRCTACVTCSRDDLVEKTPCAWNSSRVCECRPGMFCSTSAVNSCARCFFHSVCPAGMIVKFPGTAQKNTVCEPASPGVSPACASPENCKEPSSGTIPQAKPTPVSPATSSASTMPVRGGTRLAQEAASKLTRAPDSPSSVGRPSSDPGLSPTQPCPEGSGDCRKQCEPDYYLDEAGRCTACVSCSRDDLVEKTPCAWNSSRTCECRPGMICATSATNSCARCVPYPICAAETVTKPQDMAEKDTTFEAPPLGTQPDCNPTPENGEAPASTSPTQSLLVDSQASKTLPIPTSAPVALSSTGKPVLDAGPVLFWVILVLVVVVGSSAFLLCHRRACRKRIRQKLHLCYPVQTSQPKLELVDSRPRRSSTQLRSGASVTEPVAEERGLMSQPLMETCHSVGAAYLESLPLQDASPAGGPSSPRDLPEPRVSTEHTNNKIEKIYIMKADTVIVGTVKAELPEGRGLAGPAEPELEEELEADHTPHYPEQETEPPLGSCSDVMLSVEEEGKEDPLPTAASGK
Experimental: as §1

[5] = biological target: T5, DR5 on transiently transfected cells (UniProt O14763 56-440, limits assumed)
T5 construct: whole, on cells
Experimental: as §1

[6] = biological target: T6, DR6 on transiently transfected cells (UniProt O75509 42-655, limits assumed)
T6 construct: whole, on cells
T6 sequence (looked up): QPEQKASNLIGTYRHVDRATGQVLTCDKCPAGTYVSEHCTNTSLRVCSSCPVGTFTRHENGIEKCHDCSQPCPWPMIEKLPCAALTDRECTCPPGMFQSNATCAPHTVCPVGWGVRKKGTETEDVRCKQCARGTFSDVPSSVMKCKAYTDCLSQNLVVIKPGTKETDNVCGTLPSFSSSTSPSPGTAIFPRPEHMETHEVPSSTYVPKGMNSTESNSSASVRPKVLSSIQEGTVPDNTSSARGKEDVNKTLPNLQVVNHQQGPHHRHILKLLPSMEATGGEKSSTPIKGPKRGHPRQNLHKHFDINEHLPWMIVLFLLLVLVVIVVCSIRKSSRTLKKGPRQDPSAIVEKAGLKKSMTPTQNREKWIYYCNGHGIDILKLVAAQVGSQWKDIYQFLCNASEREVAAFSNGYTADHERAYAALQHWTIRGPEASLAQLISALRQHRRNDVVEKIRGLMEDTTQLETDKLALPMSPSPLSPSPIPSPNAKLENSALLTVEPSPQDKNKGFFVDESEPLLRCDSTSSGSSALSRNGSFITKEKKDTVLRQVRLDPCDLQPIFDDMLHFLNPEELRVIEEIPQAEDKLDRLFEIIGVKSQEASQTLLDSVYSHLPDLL
Experimental: as §1

[7] = biological target: T7, DcR1 on transiently transfected cells (UniProt O14798 26-236, limits assumed)
T7 construct: whole, on cells
T7 sequence (looked up): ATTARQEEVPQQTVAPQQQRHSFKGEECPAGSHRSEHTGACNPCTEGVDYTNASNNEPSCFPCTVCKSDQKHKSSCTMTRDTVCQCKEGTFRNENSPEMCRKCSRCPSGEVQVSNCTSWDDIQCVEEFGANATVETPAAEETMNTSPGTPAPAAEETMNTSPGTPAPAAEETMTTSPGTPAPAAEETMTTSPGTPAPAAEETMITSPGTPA
Experimental: as §1

[8] = biological target: T8, HveA on transiently transfected cells (UniProt Q92956 39-283, limits assumed)
T8 construct: whole, on cells
T8 sequence (looked up): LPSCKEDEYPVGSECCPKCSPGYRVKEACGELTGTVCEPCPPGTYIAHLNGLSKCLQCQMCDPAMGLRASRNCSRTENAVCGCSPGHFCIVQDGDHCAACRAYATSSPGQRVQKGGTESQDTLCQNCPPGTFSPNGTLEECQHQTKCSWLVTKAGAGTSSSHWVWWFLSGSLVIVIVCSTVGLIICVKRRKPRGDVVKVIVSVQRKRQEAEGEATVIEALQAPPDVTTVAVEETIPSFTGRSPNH
Experimental: as §1

Measured: binding result

B1: FLAG-tagged soluble form of TNF-gamma-beta (aa 72-251) (ligand, human, UniProt O95150 72-251, looked up)
chain: LKGQEFAPSHQQVYAPLRADGDKPRAHLTVVRQTPTQHFKNQFPALHWEHELGLAFTKNRMNYTNKFLLIPESGDYFIYSQVTFRGMTSECSEIRQAGRPNKPDSITVVITKVTDSYPEPTQLLMGTKSVCEVGSNWFQPIYLGAMFSLQEGDKLMVNVSDISLVDYTKEDKTFFGAFLL
notes: also called FLAG-TL1β; FLAG-TNF-gamma-beta; not shown: FLAG tag of vector pFLAGCMV1
no binding: all assays above

Reference: US20030170203A1 (Human Genome Sciences, published 2003)
